Test [1] concerns the target T1, GP73 in human prostatic hyperplasia tissue sections (前列腺增生组织石蜡切片中的GP73) (human) (UniProt Q8NBJ4).
T1 sequence (looked up): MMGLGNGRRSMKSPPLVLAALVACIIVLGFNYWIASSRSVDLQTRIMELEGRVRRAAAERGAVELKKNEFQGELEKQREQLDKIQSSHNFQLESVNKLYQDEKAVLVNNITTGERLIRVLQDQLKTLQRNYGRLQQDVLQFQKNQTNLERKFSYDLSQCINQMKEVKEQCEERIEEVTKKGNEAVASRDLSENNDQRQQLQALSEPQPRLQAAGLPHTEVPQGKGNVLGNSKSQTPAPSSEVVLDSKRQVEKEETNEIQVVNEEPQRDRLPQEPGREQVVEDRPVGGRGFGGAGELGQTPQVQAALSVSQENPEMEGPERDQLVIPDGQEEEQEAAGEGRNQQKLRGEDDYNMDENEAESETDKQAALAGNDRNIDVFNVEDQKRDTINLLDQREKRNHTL
Description: immunohistochemistry on paraffin sections.

Test [2] deals with T2, 重组人GP73蛋白 His-GP73 (recombinant human Golgi protein 73 fragment with His tag, expressed in E. coli from pET-28-a(+)) (human) (UniProt Q8NBJ4).
T2 sequence (looked up): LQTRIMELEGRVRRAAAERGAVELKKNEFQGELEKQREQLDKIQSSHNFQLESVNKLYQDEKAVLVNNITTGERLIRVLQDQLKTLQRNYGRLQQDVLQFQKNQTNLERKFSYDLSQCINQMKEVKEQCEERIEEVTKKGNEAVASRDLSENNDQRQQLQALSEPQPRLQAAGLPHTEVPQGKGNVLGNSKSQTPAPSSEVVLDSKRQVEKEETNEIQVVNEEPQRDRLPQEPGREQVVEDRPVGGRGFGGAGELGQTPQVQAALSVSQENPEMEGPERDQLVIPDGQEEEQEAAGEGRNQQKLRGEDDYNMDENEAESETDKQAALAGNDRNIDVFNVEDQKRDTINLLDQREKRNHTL
In words: double antibody sandwich ELISA: 6A2 (1 μg/ml) capture, His-GP73 standard, rabbit anti-GP73 serum (1:1000) detection. (In general: An ELISA detects its analyte on a solid surface through an enzyme-linked reagent.)

B1: 抗GP73单克隆抗体6A2 (anti-GP73 mAb) (antibody, part only; not given: light chain variable region, V domains shown, part only)
VH: DFNIKDTYMHWMKQRPEQGLEWIGRIDPANGNTKYDPKFQGKATITTDTSSNTAYLQLSSLTSEDTAVYYCAREDYGNLWYFDV
For the molecule B1, the 效价 (titer in immunohistochemistry) (titer (1:x dilution)) in test [1] came to 1000. Moreover, in test [2], the 最低检测限 (lowest detection limit of the sandwich ELISA) was found to be 0.25 ng/mL.

The values above are taken from patent publication CN101407544A.
